Results from publication PMC6588349, “Conformational dynamics between transmembrane domains and allosteric modulation of a metabotropic glutamate receptor” (eLife, 2019).

Target: SNAP-mGluR3 (rat), P31422
Test: single-molecule pulldown (SiMPull) with subunit counting by photobleaching steps; surface receptors labelled with BG-LD555 on HEK 293T cells, lysed in 1.2% IGEPAL, diluted in 0.1% IGEPAL, immobilised by biotinylated anti-HA antibody on a PEG-passivated coverslip, TIRF imaging; SNAP labelling efficiency ~80%; background two-step bleaching ~5-10%
Details: remark: other sources report otherwise

B1: SNAP-mGluR3, P31422 23-879 (receptor)
chain: LGDHNFMRREIKIEGDLVLGGLFPINEKGTGTEECGRINEDRGIQRLEAMLFAIDEINKDNYLLPGVKLGVHILDTCSRDTYALEQSLEFVRASLTKVDEAEYMCPDGSYAIQENIPLLIAGVIGGSYSSVSIQVANLLRLFQIPQISYASTSAKLSDKSRYDYFARTVPPDFYQAKAMAEILRFFNWTYVSTVASEGDYGETGIEAFEQEARLRNICIATAEKVGRSNIRKSYDSVIRELLQKPNARVVVLFMRSDDSRELIAAANRVNASFTWVASDGWGAQESIVKGSEHVAYGAITLELASHPVRQFDRYFQSLNPYNNHRNPWFRDFWEQKFQCSLQNKRNHRQVCDKHLAIDSSNYEQESKIMFVVNAVYAMAHALHKMQRTLCPNTTKLCDAMKILDGKKLYKEYLLKINFTAPFNPNKGADSIVKFDTFGDGMGRYNVFNLQQTGGKYSYLKVGHWAETLSLDVDSIHWSRNSVPTSQCSDPCAPNEMKNMQPGDVCCWICIPCEPYEYLVDEFTCMDCGPGQWPTADLSGCYNLPEDYIKWEDAWAIGPVTIACLGFLCTCIVITVFIKHNNTPLVKASGRELCYILLFGVSLSYCMTFFFIAKPSPVICALRRLGLGTSFAICYSALLTKTNCIARIFDGVKNGAQRPKFISPSSQVFICLGLILVQIVMVSVWLILETPGTRRYTLPEKRETVILKCNVKDSSMLISLTYDVVLVILCTVYAFKTRKCPENFNEAKFIGFTMYTTCIIWLAFLPIFYVTSSDYRVQTTTMCISVSLSGFVVLGCLFAPKVHIVLFQPQKNVVTHRLHLNRFSVSGTATTYSQSSASTYVPTVCNGREVLDSTTSSL
modifications: here or on the partner: SNAP tag labelled with BG-LD555; SNAP tag labelled with BG-LD555
Question: How did the percent of spots bleaching in two steps turn out when B1 was run?
Answer: 48.9%

Question: What about the stoichiometry N of the same binder?
Answer: 2
